Measurements reported in publication PMC6611371 (Research and Practice in Thrombosis and Haemostasis, 2019).

Assays:
Assay in all cases: SPR
[1] = molecular target: FVIIaVQ (Homo sapiens, UniProt P08709, point mutant)
[2] = molecular target: FVIIaDQ (Homo sapiens, UniProt P08709, point mutant)
[3] = molecular target: FVIIaDV (Homo sapiens, UniProt P08709, point mutant)

Kd [1]: 130 nM
koff [1]: 0.0035 s⁻¹
Kd [2]: 1.9 nM
koff [2]: 0.00024 s⁻¹
Kd [3]: 1.1 nM
koff [3]: 0.00016 s⁻¹
B1: mAb4F5 (antibody, V domains shown)
VH: EVKLVESGGGLVQPGGSRKLSCAASGFTFSDYGMAWVRQAPGKGPEWIAFISNLSRIYYADTVTGRFTISRENDKNTLFLEMSSLRSEDSAIYYCTRDDGYYRVDYWGQGATLTVSS
VL: DIVMTQSHKFLSTSVGNRVSITCKASQDVGIGLVSWYQQKPGQSPKLLIHWASTRHTGVPDRFTGSGSGTDFTLTINNVQSEDLATYFCQQFSNYPLTFGSGTRLEIK
